In experiment [1] the target is TylG5 TE wild type (thioesterase domain of the tylosin polyketide synthase TylG5) (Streptomyces fradiae). The experiment is described as follows: SEC.
The target of experiment [2] is DEBSIII TE wild type (thioesterase domain of the erythromycin polyketide synthase DEBSIII) (Saccharopolyspora erythrea). The experiment is described as follows: SEC. On the technique in general: SEC sorts molecules by how far they enter the pores of the column.

For “TylG5 TE wild type (thioesterase domain of the tylosin polyketide synthase TylG5) (domain or fragment)”, the stoichiometry N (commonly a count of units in the complex or per binding partner) in experiment [1] was determined as 2. The substance “DEBSIII TE wild type (thioesterase domain of the erythromycin polyketide synthase DEBSIII) (domain or fragment)” had a stoichiometry N in experiment [2] of 2.
